US20140072613A1, “Compositions and Methods for Treating Cutaneous Scarring” (priority 2012, published 2014)

Experiments:
Experiment in all cases: cell-based or functional assay
TrkA(h) (human) = TrkA(h) (human) (UniProt P04629)
Flt3(h) (human) = target: T1, Flt3(h) (human) (UniProt P36888)
T1 sequence (looked up): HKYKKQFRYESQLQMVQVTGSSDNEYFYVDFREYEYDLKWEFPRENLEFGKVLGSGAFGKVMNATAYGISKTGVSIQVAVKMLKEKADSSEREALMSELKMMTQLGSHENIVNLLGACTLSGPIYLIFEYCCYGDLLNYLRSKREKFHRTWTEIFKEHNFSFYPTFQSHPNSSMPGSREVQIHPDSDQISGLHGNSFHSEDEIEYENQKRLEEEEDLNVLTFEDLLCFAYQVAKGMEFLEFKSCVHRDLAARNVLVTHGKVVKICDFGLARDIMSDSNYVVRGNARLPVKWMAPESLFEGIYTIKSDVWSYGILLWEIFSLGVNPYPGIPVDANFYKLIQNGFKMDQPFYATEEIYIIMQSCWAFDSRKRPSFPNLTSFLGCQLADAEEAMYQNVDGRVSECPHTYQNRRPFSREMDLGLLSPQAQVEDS

PRAK(h) (human) = PRAK(h) (human) (UniProt Q8IW41)
Sequence of PRAK(h) (human) (Q8IW41 whole entry): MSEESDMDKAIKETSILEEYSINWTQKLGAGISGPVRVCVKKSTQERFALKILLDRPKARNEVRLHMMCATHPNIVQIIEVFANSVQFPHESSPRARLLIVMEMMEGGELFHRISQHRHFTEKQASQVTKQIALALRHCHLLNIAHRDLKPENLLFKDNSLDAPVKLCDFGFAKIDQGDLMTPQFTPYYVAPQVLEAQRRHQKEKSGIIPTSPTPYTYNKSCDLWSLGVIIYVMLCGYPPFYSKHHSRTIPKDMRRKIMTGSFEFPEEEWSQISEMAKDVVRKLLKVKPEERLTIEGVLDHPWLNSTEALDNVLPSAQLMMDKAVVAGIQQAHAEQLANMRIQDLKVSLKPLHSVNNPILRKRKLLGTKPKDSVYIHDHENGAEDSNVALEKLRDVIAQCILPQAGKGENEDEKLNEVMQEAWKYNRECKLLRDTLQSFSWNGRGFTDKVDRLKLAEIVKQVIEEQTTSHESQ

EGFR(T790M)(h) (human) = EGFR(T790M)(h) (human) (UniProt P00533)
STK33(h) (human) = STK33(h) (human) (UniProt Q9BYT3)
Sequence of STK33(h) (human) (Q9BYT3 whole entry): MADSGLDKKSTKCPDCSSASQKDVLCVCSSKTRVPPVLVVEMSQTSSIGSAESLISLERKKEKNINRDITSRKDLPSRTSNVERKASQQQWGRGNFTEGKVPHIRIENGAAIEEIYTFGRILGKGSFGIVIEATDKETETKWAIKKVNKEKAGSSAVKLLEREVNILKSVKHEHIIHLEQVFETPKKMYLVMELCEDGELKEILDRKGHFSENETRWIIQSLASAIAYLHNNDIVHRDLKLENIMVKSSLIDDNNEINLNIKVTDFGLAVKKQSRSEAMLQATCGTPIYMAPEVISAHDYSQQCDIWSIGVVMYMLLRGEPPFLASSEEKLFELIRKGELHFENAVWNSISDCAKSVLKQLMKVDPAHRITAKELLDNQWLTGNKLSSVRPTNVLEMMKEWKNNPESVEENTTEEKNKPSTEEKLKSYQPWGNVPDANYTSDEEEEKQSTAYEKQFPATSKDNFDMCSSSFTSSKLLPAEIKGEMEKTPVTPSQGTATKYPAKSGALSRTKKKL

PKG1β(h) (human) = target: T2, PKG1β(h) (human) (UniProt Q13976)
T2 sequence (looked up): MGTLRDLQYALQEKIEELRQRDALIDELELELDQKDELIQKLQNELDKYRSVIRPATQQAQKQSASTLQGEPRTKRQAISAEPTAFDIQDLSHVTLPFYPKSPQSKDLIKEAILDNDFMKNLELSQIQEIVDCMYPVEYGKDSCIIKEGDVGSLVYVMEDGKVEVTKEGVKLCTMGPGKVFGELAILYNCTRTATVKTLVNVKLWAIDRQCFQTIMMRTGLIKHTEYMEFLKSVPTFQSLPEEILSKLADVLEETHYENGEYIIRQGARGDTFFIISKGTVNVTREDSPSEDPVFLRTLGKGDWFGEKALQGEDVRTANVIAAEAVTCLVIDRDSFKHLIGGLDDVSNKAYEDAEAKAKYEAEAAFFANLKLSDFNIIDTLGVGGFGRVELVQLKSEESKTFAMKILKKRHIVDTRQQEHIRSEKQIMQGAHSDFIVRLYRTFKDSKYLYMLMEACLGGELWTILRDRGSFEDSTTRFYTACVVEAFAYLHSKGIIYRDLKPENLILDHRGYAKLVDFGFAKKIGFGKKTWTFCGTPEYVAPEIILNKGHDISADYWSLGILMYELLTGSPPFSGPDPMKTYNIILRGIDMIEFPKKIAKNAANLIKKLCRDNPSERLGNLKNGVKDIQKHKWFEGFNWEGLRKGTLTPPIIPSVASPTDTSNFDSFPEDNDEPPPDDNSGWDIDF

ZIPK(h) (human) = ZIPK(h) (human) (UniProt O43293)
CDK3/cyclinE(h) (human) = CDK3/cyclinE(h) (human) (UniProt Q00526)
PKD2(h) (human) = target: T3, PKD2(h) (human) (UniProt Q9BZL6)
T3 sequence (looked up): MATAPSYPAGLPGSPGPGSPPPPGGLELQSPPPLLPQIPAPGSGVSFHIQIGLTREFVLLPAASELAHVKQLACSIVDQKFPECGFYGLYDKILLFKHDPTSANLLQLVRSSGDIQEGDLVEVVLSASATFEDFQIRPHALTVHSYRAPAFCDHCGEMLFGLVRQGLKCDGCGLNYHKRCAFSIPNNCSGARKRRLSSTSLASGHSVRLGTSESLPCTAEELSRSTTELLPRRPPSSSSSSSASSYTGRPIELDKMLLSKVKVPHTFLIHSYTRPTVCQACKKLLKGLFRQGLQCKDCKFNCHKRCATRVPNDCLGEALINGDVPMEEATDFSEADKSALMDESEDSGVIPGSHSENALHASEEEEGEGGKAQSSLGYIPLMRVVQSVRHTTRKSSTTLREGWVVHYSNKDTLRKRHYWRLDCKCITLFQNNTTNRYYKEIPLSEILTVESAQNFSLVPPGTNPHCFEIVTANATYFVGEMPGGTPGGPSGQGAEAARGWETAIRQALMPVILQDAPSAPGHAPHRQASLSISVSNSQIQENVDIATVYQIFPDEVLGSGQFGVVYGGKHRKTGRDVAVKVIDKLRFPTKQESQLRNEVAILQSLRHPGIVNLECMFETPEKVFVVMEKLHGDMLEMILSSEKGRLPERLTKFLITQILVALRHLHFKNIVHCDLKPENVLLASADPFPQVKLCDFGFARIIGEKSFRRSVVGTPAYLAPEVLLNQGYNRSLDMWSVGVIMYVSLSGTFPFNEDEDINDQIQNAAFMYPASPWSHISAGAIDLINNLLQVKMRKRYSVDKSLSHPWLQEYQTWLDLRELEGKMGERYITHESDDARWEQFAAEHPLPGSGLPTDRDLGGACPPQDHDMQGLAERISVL

Met(Y1248D)(h) (human) = Met(Y1248D)(h) (human) (UniProt P08581)
mTOR(h) (human) = mTOR(h) (human) (UniProt P42345)
Sequence of mTOR(h) (human) (P42345 1362-2549 limits assumed): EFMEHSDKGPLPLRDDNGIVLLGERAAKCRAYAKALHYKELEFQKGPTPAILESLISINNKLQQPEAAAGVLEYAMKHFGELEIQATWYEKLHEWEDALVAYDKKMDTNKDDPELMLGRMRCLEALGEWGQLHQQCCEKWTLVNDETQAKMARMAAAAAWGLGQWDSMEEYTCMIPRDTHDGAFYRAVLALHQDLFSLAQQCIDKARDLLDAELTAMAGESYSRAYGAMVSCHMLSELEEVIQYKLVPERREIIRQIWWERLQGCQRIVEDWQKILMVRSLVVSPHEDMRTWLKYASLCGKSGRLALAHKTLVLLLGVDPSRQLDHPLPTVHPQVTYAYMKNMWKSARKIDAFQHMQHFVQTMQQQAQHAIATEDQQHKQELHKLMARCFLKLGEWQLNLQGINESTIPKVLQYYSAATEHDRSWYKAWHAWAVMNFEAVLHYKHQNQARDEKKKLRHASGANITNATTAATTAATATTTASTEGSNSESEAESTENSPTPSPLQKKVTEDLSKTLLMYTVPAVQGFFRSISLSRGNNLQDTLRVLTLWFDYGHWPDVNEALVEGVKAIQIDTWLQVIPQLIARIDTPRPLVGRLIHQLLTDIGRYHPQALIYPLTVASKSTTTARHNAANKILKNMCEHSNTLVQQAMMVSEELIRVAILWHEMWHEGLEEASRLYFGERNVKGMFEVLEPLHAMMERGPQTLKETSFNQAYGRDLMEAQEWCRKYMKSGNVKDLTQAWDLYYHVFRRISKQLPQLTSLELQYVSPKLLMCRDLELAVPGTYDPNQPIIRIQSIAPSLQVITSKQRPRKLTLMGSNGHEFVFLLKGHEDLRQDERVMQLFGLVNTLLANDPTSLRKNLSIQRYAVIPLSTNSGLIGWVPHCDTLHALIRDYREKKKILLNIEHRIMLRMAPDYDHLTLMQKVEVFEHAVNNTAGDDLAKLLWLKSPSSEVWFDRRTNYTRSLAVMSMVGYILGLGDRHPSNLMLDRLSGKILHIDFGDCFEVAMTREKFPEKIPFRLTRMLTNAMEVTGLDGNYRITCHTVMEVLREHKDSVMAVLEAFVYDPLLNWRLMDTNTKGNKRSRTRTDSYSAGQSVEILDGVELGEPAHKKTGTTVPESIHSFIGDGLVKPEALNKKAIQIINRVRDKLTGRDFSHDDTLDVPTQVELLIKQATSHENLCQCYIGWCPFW

Met(Y1248H)(h) (human) = Met(Y1248H)(h) (human) (UniProt P08581)
MELK(h) (human) = MELK(h) (human) (UniProt Q14680)
Sequence of MELK(h) (human) (Q14680 1-340 limits assumed): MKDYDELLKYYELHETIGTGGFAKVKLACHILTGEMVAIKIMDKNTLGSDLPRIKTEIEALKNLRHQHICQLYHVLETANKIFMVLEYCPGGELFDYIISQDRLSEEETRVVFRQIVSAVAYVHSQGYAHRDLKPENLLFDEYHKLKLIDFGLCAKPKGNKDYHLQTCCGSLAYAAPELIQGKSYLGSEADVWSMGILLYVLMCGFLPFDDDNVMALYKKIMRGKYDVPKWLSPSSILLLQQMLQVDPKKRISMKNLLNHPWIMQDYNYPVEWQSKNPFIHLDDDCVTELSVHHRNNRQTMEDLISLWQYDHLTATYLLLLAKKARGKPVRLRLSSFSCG

ROCK-I(h) (human) = ROCK-I(h) (human) (UniProt Q13464)
Sequence of ROCK-I(h) (human) (Q13464 17-535 limits assumed): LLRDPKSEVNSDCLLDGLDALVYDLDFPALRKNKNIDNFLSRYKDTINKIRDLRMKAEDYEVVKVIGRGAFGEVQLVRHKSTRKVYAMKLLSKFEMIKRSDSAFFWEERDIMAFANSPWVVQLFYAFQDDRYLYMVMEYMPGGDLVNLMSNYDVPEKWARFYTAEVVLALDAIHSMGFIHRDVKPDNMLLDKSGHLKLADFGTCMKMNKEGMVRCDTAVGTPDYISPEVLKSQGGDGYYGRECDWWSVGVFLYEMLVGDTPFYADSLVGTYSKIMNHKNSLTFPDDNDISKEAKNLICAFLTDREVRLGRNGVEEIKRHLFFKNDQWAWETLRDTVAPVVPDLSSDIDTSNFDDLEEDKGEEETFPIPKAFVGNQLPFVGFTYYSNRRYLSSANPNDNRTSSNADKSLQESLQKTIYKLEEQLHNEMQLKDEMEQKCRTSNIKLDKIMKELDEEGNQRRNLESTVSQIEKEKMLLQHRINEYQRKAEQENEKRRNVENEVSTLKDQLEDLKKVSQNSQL

PKBα(h) (human) = PKBα(h) (human) (UniProt P31749)
Sequence of PKBα(h) (human) (P31749 whole entry): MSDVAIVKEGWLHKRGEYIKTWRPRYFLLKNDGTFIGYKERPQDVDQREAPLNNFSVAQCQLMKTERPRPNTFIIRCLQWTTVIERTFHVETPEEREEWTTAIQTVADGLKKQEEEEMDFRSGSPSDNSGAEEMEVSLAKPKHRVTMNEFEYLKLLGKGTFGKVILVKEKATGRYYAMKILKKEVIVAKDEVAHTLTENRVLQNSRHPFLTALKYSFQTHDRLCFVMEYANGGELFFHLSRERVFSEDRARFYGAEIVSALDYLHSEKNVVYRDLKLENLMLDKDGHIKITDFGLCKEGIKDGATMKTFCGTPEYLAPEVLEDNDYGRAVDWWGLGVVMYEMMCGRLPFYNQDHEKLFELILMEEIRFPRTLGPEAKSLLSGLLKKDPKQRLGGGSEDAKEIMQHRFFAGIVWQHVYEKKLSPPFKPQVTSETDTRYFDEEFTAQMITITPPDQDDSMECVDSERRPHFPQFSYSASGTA

PKBβ(h) (human) = PKBβ(h) (human) (UniProt P31751)
Sequence of PKBβ(h) (human) (P31751 whole entry): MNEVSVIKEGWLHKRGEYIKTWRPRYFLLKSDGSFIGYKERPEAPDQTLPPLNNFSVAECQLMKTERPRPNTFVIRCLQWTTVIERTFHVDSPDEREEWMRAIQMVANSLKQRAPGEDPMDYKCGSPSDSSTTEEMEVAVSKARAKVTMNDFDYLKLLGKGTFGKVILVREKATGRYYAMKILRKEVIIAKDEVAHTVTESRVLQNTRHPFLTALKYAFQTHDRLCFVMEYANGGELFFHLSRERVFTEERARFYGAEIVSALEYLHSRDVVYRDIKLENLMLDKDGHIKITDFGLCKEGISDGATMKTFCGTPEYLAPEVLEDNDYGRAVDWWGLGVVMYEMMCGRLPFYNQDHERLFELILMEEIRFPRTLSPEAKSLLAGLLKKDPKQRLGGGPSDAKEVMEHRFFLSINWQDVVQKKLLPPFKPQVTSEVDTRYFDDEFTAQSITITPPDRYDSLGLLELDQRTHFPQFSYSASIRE

Met(M1268T)(h) (human) = Met(M1268T)(h) (human) (UniProt P08581)
MLK1(h) (human) = MLK1(h) (human) (UniProt P80192)
Sequence of MLK1(h) (human) (P80192 132-413 limits assumed): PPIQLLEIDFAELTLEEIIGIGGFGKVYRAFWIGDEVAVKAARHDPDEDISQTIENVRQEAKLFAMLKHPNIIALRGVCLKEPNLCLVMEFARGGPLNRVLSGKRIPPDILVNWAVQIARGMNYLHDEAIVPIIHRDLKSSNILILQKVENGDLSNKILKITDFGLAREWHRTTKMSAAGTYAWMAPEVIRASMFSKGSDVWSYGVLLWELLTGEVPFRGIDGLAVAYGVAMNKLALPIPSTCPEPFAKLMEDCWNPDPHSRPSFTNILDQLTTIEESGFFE

BTK(R28H)(h) (human) = BTK(R28H)(h) (human) (UniProt Q06187)
Sequence of BTK(R28H)(h) (human) (Q06187 whole entry R28H): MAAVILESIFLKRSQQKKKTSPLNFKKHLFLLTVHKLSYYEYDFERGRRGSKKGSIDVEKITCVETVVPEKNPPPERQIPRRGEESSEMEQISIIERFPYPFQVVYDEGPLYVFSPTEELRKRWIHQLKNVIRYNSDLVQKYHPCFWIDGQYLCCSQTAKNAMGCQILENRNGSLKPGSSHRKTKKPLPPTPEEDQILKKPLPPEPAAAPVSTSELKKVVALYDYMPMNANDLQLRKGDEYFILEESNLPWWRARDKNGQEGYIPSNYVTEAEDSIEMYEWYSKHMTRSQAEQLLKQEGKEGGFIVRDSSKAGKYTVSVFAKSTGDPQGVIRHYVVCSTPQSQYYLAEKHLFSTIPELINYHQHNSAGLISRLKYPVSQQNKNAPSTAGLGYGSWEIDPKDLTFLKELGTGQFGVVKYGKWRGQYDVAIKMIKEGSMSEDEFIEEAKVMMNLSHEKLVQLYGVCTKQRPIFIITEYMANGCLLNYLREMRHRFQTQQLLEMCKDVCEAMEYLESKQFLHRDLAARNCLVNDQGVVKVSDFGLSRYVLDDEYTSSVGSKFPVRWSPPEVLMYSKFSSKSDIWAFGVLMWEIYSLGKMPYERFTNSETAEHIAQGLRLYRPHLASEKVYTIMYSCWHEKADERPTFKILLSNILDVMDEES

% activity, 100 µM (TrkA(h) (human)): 24% | % activity, 100 µM (Flt3(h) (human)): 17% | % activity, 100 µM (PRAK(h) (human)): 95% | % activity, 100 µM (EGFR(T790M)(h) (human)): 70% | % activity, 100 µM (STK33(h) (human)): 16% | % activity, 100 µM (PKG1β(h) (human)): 24% | % activity, 100 µM (ZIPK(h) (human)): 1% | % activity, 100 µM (CDK3/cyclinE(h) (human)): 8% | % activity, 100 µM (PKD2(h) (human)): 10% | % activity, 100 µM (Met(Y1248D)(h) (human)): 218% | % activity, 100 µM (mTOR(h) (human)): 135% | % activity, 100 µM (Met(Y1248H)(h) (human)): 126% | % activity, 100 µM (MELK(h) (human)): 0% | % activity, 100 µM (ROCK-I(h) (human)): 17% | % activity, 100 µM (PKBα(h) (human)): 30% | % activity, 100 µM (PKBβ(h) (human)): 21% | % activity, 100 µM (Met(M1268T)(h) (human)): 239% | % activity, 100 µM (MLK1(h) (human)): 43% | % activity, 100 µM (BTK(R28H)(h) (human)): 10%
Substance: MMI-0500 (peptide)
